# Assay results reported in patent US20190389910A1 (ORUM THERAPEUTICS, published 2019).
# T1: EpCAM (epithelial cell adhesion molecule) expressed on the cell surface of human tumor cells (human, UniProt P16422 24-314)
# T1 construct: whole, on cells; also called cell surface EpCAM; EpCAM receptor
# T1 sequence (looked up): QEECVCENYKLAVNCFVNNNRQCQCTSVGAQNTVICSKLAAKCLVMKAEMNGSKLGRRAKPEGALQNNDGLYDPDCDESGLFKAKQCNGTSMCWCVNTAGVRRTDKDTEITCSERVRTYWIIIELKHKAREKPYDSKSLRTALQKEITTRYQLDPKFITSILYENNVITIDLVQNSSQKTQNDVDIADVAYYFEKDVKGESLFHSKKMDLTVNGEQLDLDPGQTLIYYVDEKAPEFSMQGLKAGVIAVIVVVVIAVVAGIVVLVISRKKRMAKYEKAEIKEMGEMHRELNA
# Experiments:
# [1] = biological target: T1, EpCAM (epithelial cell adhesion …); experiment: flow cytometry on HCT116 and SW480 cells; 100 nM antibody with 300 IU/mL heparin, Alexa488 anti-human Fc
# Experimental: Cell surface-binding levels of the indicated CTs, coincubated at 100 nM with 300 IU/mL heparin for 1 h at 4° C. with the indicated cells before analysis (lower panels). An isotype control is used as a negative control.
# Then, each antibody was reacted with antibodies specific for human Fc to which Alexa488 (green fluorescence) was linked, at 4° C. for 30 min. After washing with PBS, the cells were analyzed by flow cytometry.
# [2] = biological target: heparan sulfate proteoglycan (HSPG) expressed on HeLa cells; experiment: cell-based or functional assay
binder,measurement,setting,value
"CT05 (antibody, V domains shown, Intact IgG without a cyclic peptide; also called CT05 VL variant) VH: EVQLVESGGGLVQPGGSLRLSCAASGYTFTSYVMHWVRQAPGKGLEWVSAINPYNDGNYYADSVKGRFTISRDNSRKTLYLQMNSLRAEDTAVYYCARGAYKRGYAMDYWGQGTTVTVSS VL: DIQMTQSPSSLSASVGDRVTITCKSSQSLLNSRDGKNYLAWYQQKPGKAPKLLIYDASNLETGVPSRFSGSGSGTDFTFTISSLQPEDIATYFCQQYWYWMYTFGGGTKVEIKR",binding result,[1],no binding (tested: 100 nM)
same,"fluorescence intensity of internalized antibody relative to TMab4-WYW (confocal microscopy, HeLa cells, 1 µM, 6 h)",[2],17.3%
